Experimental data from US20040106120A1, “Diagnosis and treatment of disease” (priority 2000, published 2004).

How the values were obtained:
cultured skin equivalent = test: Treatment of skin equivalents with other protease inhibitors for 24 h, light and electron microscopy; type: cell-based; details: SLPI 500 nM, cultured for 24 h
Description: Skin equivalent (+ and − inhibitor) is cultured with the inhibitor for 24 h. Skin equivalent are taken the preparation of histological sections. Sections are then analysed by light and electron microscopy.
SLPI (500 nM) is added to cultured skin equivalent, and cultured for 24 h. Skin equivalent (+ and − SLPI) are taken the preparation of sections. Sections are then analysed in light and electron microscopy.
SCCE antibody is added is added to cultured skin equivalent, and cultured for 24 h. Skin equivalent (+ and − SCCE antibodies) are taken the preparation of sections. Sections are then analysed in light and electron microscopy.
SCTE antibody is added is added to cultured skin equivalent, and cultured for 24 h. Skin equivalent (+ and − SCTE antibodies) are taken the preparation of sections. Sections are then analysed in light and electron microscopy.

[1] = Topical protease inhibitor in emollient cream on volunteer's arm skin for 14 days, biopsy histology; type: in vivo; details: human volunteer, emollient cream applied daily to arm for 14 days under occlusion
Text: SPLI protease inhibitor is extracted from normal human skin of a volunteer. Alternatively, a nucleic acid sequence encoding the protease inhibitor from the individual is cloned using PCR, or library screening. The individual's protease inhibitor sequence is cloned into an expression vector, and recombinant protease inhibitor expressed and purified using conventional and known means.
The inhibitor is then formulated in an emollient cream base. Two fingertip units of this formulation are applied to an area of the volunteer's skin on the arm measuring 2×2 cm. The area is covered with a plastic capsule which is secured in place with a cotton bandage. The cream is reapplied to the same area each day for 14 consecutive days.
On day 14 the cup is removed and a 1×0.5 cm ellipse skin biopsy is taken from the treated area and a similar biopsy taken from an untreated area on the opposite arm.

Corneodesmosin = molecular target: T1, Corneodesmosin (Homo sapiens, UniProt Q15517); test: Cleavage of adhesion proteins from human epidermis by recombinant SCCE/SCTE (immunoblot); type: biochemical; details: human epidermis protein extract incubated with active recombinant enzyme at 37 C
T1 construct: The native form of corneodesmosin has a molecular weight of between 50 and 56 kDa; from tissue; host or cells: human epidermis (TENP-40 buffer extract)
T1 sequence (Q15517 33-529): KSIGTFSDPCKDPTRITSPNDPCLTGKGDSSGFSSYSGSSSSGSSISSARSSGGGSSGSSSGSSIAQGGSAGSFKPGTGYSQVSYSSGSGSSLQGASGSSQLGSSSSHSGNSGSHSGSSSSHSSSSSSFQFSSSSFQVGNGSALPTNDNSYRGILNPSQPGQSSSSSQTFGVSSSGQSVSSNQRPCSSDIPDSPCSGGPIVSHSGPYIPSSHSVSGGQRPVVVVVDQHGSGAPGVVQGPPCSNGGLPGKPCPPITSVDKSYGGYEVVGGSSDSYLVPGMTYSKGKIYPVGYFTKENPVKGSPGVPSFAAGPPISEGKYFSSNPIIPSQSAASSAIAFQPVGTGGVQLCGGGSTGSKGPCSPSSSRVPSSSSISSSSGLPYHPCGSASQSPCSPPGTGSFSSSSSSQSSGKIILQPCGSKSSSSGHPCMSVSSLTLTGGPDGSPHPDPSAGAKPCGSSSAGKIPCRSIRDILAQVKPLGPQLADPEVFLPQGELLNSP
Description: (§1) Recombinant ProSCCE is produced and purified as described above. Recombinant ProSCCE is activated with agarose-bound trypsin, as described in Brasttsand & Egelrud, 1999.
(§2) Proteins are extracted from human epidermis in the presence of a detergent (TENP-40 buffer extract) and incubated with active SCCE for 37 C. for 4 h. The reactions are stopped by boiling for 2 mins after Laemmli's sample buffer is added. The proteins are immunoblotted with antibodies against corneodesmosomal proteins.

Desmocollin = test: as above; type: biochemical; details: human epidermis protein extract incubated with active recombinant enzyme at 37 C
Description: as §1, §2

Desmoglein = test: as above; type: biochemical; details: human epidermis protein extract incubated with active recombinant enzyme at 37 C
Description: as §1, §2

Desmoplakin = test: as above; type: biochemical; details: human epidermis protein extract incubated with active recombinant enzyme at 37 C
Description: as §1, §2

Envoplakin = molecular target: T2, Envoplakin (Homo sapiens, UniProt Q92817); test: as above; type: biochemical; details: human epidermis protein extract incubated with active recombinant enzyme at 37 C
T2 construct: The native form of Envoplakin has a molecular weight of between 124-209 kDa; from tissue; host or cells: human epidermis (TENP-40 buffer extract)
T2 sequence (Q92817 whole entry): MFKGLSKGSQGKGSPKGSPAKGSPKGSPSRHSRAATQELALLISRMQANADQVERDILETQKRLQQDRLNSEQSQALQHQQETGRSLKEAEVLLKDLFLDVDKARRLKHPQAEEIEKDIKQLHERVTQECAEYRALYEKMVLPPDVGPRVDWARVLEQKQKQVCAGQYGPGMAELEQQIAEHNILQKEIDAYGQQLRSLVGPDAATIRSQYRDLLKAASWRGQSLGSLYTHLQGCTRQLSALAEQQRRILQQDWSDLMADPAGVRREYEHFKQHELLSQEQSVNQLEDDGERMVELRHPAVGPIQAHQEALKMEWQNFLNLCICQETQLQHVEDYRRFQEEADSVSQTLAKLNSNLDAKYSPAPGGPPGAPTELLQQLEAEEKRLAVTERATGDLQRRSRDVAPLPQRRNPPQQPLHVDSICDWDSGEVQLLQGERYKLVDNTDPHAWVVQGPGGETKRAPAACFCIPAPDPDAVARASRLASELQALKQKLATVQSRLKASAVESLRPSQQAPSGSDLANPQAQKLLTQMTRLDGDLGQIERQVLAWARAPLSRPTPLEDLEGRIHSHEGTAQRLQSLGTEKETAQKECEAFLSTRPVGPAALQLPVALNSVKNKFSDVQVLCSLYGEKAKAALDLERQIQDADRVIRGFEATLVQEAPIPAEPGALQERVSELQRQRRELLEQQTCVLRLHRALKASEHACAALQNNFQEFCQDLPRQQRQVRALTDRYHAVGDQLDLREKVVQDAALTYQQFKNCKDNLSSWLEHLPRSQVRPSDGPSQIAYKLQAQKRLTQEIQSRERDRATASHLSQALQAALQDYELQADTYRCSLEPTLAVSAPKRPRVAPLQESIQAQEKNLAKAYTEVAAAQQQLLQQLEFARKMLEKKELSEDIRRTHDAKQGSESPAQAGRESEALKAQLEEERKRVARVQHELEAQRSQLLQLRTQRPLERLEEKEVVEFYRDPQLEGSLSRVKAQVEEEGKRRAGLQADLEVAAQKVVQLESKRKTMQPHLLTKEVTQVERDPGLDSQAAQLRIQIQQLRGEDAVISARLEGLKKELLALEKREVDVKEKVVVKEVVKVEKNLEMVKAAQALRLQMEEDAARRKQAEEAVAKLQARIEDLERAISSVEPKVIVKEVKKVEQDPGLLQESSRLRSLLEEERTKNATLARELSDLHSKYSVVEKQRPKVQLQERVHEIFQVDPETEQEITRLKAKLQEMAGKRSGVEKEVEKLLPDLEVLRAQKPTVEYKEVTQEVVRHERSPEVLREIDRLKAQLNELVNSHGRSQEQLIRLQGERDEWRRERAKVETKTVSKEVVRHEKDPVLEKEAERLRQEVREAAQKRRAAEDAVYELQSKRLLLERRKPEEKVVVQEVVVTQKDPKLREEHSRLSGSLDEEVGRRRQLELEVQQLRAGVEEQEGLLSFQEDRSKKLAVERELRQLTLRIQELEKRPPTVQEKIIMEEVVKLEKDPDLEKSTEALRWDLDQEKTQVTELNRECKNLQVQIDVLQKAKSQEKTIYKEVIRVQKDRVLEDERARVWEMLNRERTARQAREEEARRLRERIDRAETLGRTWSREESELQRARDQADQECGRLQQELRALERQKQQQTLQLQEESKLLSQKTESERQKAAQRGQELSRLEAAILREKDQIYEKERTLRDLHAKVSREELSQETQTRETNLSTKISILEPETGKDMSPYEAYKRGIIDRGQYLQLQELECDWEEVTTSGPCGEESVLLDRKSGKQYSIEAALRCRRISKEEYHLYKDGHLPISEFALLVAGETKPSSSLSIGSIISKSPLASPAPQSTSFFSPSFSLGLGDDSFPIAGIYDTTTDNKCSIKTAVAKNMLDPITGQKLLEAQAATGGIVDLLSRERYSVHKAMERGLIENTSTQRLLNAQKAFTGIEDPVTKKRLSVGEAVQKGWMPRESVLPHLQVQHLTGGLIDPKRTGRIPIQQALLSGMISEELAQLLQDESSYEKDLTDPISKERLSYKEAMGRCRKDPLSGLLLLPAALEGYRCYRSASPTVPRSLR
Description: as §1, §2

Plakoglobin = molecular target: T3, Plakoglobin (Homo sapiens, UniProt P14923); test: as above; type: biochemical; details: human epidermis protein extract incubated with active recombinant enzyme at 37 C
T3 construct: The native form of plakoglobin has a molecular weight of between 85 kDa and 75 kDa; from tissue; host or cells: human epidermis (TENP-40 buffer extract)
T3 sequence (P14923 1-745): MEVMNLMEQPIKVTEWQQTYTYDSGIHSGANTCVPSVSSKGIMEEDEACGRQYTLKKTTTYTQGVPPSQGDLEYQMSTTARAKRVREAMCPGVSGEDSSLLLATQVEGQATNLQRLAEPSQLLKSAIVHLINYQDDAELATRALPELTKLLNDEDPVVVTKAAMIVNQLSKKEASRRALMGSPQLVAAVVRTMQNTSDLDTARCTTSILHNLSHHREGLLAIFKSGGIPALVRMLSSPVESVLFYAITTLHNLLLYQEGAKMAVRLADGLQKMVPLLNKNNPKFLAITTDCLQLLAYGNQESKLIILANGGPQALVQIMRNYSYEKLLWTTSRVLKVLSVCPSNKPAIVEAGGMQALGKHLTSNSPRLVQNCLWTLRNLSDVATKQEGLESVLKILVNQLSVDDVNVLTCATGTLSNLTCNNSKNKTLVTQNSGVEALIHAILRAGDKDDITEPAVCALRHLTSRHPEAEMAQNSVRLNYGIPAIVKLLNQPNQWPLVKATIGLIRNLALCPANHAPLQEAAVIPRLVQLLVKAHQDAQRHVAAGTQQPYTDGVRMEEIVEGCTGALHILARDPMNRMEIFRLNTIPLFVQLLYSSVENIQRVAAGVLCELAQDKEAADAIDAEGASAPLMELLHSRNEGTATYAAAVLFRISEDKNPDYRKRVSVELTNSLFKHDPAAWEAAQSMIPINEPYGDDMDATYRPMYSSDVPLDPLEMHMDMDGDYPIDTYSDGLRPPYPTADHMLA
Description: as §1, §2

[2] = tested on: corneodesmosomes in stratum corneum tape strips; test: Treatment of tape strips from psoriatic skin with proteases, corneodesmosome density by electron microscopy; parameters: species or system human; details: 22-50 nM recombinant SCCE or SCTE, 1-6 h at 37° C
Description: Tape strips are obtained according to a method described by Guerrin et al, 1998.
Small pieces of tape strips from control patients along with patients suffering from the skin conditions eczema, psoriasis, dermatitis and psoriasis are fixed for 2 h at 4° C. in Karnovsky fixative (2% paraformaldehyde, 2.5% gluteraldehyde in 0.1M phosphate buffer, pH 7.4). The samples are then washed three times in 0.1M phosphate buffer (pH7.4) containing 10% sucrose for 30 minutes each at 4° C.
Secondary fixation is carried out in aqueous 2% osmium tetroxide solution for 1 hour at room temperature. Dehydration is through a graded series of ethanol at room temperature (75% ethanol for 15 minutes; 95% ethanol for 15 minutes; 2 washes of 100% ethanol for 15 minutes; 100% ethanol dried over anhydrous copper sulphate for 15 minutes).
For resin embedding, samples are first placed in the intermediate solvent, propylene oxide, for two changes of 15 minutes duration. This is followed by infiltration in a 50:50 mixture of propylene oxide:araldite resin overnight at room temperature. […]
Ultrathin sections (70-90 nm) are cut on an ultramicrotome. […] Electron micrographs are recorded on Agfa Scientific 23D56 EM film.
Corneodesmosome density (area occupied by corneodesmosomes divided by total area of micrograph) is measured on electron micrographs of tape strips of each condition. […]

B1: SLPI: Secretory Leukoprotease Inhibitor protein added to cultured skin equivalent (protein, UniProt P03973 26-132, looked up)
Antileukoproteinase: SGKSFKAGVCPPKKSAQCLRYKKPECQSDWQCPGKKRCCPDTCGIKCLDPVDTPNPTRRKPGKCPVTYGQCLMLNPPNFCEMDGQCKRDLKCCMGMCGKSCVSPVKA
- effect on stratum corneum thickness and skin barrier of skin equivalent (cultured skin equivalent): increase the thickness of the stratum corneum

B2: SPLI protease inhibitor: SLPI extracted from normal human skin or recombinant, formulated in an emollient cream base (protein, UniProt P03973 26-132, looked up)
Antileukoproteinase: SGKSFKAGVCPPKKSAQCLRYKKPECQSDWQCPGKKRCCPDTCGIKCLDPVDTPNPTRRKPGKCPVTYGQCLMLNPPNFCEMDGQCKRDLKCCMGMCGKSCVSPVKA
modifications: emollient cream formulation
notes: SLPI extracted from normal human skin or recombinant, formulated in an emollient cream base
- histology of stratum corneum, treated biopsy compared with control [1]: thickening of the stratum corneum with loosely adherent scales
- histology of viable epidermis, treated biopsy compared with control [1]: parakeratosis and thickening

B3: SCCE: recombinant Stratum Corneum Chymotryptic Enzyme, activated with agarose-bound trypsin (protein, UniProt P49862 30-253, looked up)
Kallikrein-7: IIDGAPCARGSHPWQVALLSGNQLHCGGVLVNERWVLTAAHCKMNEYTVHLGSDTLGDRRAQRIKASKSFRHPGYSTQTHVNDLMLVKLNSQARLSSMVKKVRLPSRCEPPGTTCTVSGWGTTTSPDVTFPSDLMCVDVKLISPQDCTKVYKDLLENSMLCAGIPDSKKNACNGDSGGPLVCRGTLQGLVSWGTFPCGQPNDPGVYTQVCKFTKWINDTMKKHR
modifications: activated with trypsin
- proteolysis of Corneodesmosin (Corneodesmosin): proteolysed
- proteolysis of Desmocollin (Desmocollin): proteolysed
- proteolysis of Desmoglein (Desmoglein): proteolysed
- proteolysis of Desmoplakin (Desmoplakin): proteolysed
- proteolysis of Envoplakin (Envoplakin): proteolysed
- proteolysis of Plakoglobin (Plakoglobin): proteolysed
- number of corneodesmosomes in treated versus untreated stratum corneum [2]: decrease significantly
